Laboratory results as given in the supplement of paper PMC10567573.

B1: KCNAB2 (parent)
chain: YVDVVFANRPDPNTPMEETVRAMT
B2: PKD2L1 (parent)
chain: VFIFYYVVEEILELHIHRLRYLSS

Variants of: B1
Assay: protein stability index of a GFP-peptide fusion (GPS, HEK-293T) (PSI 1-6); higher = more stable
Conditions: c terminus: a fixed tail appended
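Further: lentivirally expressed fusions sorted by FACS into six bins by GFP to DsRed ratio, PSI derived from sequencing read proportions per bin multiplied by bin number.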

Protein stability index, by site and new letter:
A7: E 2.19 | F 3.08 | C 1.74 | D 2.02
F6: D 4.17 | E 3.63 | G 3.16 | T 3.11 | M 2.3 | H 2.42 | C 2.18 | R 2.05 | L 2.15 | Q 3.1 | Y 2.13 | I 1.99 | S 2.79 | A 2.79 | K 2.66 | N 3.01 | V 1.94 | P 2.09 | W 3.77
D3: L 2.51 | I 4.3 | M 3.61 | T 1.82 | K 2.13 | W 2.8 | P 1.2 | Q 1.91 | S 2.99 | N 2.01 | A 2 | C 2.31 | V 2.48 | Y 2.34 | R 2.28 | H 2.07 | G 2.85 | F 2.71 | E 1.87
V4: R 2.52 | A 1.98 | L 2.66 | G 3.05 | C 1.51 | Y 1.85 | K 2.31 | Q 1.71 | H 1.39 | P 1.87 | S 1.67 | D 2.26 | T 2.12 | M 2.87 | I 1.83 | N 1.64 | W 2.33 | F 2.3 | E 2.07
V5: P 2.01 | R 2.45 | I 2.09 | F 3.07 | C 1.9 | Y 2.03 | K 1.82 | W 1.59 | E 2.5 | T 2.12 | M 3.01 | H 2.09 | N 2.06 | A 2.29 | Q 1.65 | D 2.13 | L 2.2 | G 2.49 | S 1.93
V2: P 3.69 | S 4.24 | Q 3.32 | E 4.98 | M 3.61 | T 2.91 | K 4.33 | R 4.13 | N 4.51 | D 4.91 | I 2.07 | G 3.76 | W 2.5 | F 2.81 | H 2.39 | L 3.09 | A 2.96 | Y 3.07 | C 2.34
Y1: E 4.6 | T 4.31 | P 4.42 | Q 4.06 | C 2.52 | G 4.12 | F 1.94 | W 1.74 | N 4.65 | R 3.55 | H 4.05 | K 3.77 | L 3.4 | V 3.15 | S 4.28 | M 3.69 | I 2.7 | A 4.19 | D 4.52

Variants of: B2
Assay: as above
Conditions: c terminus: a fixed tail appended

Protein stability index of substitutions, site by site:
S23: I 4 | F 2.05 | T 3.81 | V 3.04 | R 4.53 | Y 2.19
V1: F 1.49 | P 2.44 | G 3 | Y 2.76 | W 2.35 | K 2.63 | L 2.15 | C 1.97
L22: T 3.77 | C 3.65 | P 4.59 | K 3.19
F4: V 3.48 | K 2.57 | H 2.09 | G 3.56 | Y 2.36 | N 2.21 | I 1.48
L19: N 2.31 | C 2.7 | M 2.53 | T 4.02 | D 2.8
I3: L 2.25 | A 1.69 | P 3.06 | N 3.08 | T 1.54 | H 1.62 | F 2.89 | S 2.73 | M 3.13 | D 3.59 | G 2.35 | R 3.57
I11: Q 3.96 | G 2.73 | M 2.46 | T 2.64 | P 1.89 | K 2.51 | V 3.46 | Y 2.68 | S 3.09 | N 3.75
F2: Y 3.06 | N 3.7 | M 4.81 | Q 3.67 | E 1.5 | R 3.23 | S 2.65 | G 3.34 | H 1.63 | A 1.52 | T 3.77
E9: Q 2.61 | R 4 | K 3.5 | I 3.16 | Y 1.67 | C 1.88 | P 2.49 | D 3.91 | W 4.55 | S 1.63 | N 2.21
S24: K 1.12 | T 2.47 | L 2.58
V8: M 3.67 | D 1.41 | Q 1.9 | W 2.57 | G 4.19 | L 2.74 | N 2.16 | I 3.22
H15: N 3.63 | D 2.24 | T 2.71 | C 2.86 | W 2.13 | P 3.51 | M 3.1 | V 2.21 | Y 3.19
R20: K 2.34 | L 2.38 | Y 2.76 | W 2.38 | T 3.91 | I 1.98 | G 2.12 | F 2.85
L14: K 2.29 | P 3.5 | T 4.48 | E 2.14 | S 2.8 | W 1.99 | V 3.38 | H 2.69 | R 2.59 | M 2.66 | Y 2.14
V7: G 2.25 | K 3.16 | N 2.13 | W 2.54 | P 2.85 | F 1.93 | D 3.12 | Q 3.24 | Y 1.75 | A 4.67 | I 2.11 | H 3.16
E10: A 3.28 | T 1.62 | N 2.86 | W 2.69 | P 2.76 | D 2.75 | R 2.41 | L 2.35
E13: H 3.19 | I 3.04 | T 2.24 | V 3.39 | Y 1.93 | R 3.68 | M 2.72 | C 3.03 | K 2.36 | L 3.25 | P 2.44
L12: K 2.59 | R 2.27 | D 2.63 | W 2.15 | N 2.41 | Y 2.89 | E 2.76 | P 1.95 | G 1.89 | T 3.03 | C 2.92 | F 3.21 | M 2.73 | I 2.21
Y5: N 2.63 | K 3.67 | S 2.86 | D 3.1 | W 2.24 | P 1.66 | F 2.11 | M 2.79 | E 2.14
R18: V 1.65 | Q 2.37 | C 2.63 | L 3.78 | H 1.63
I16: C 3.5 | K 2.34 | A 2.11 | R 2.6 | G 3.3 | E 2.46 | Y 2.18 | S 3.37 | D 3.73 | F 3.25
H17: L 2.14 | A 2.18 | E 1.77 | M 3.93 | D 3 | S 3.69 | I 2.97 | K 2.13 | Q 4.68 | G 4.03
Y6: E 1.79 | W 3.85 | N 2.01 | K 2.12 | D 2.42 | H 2.85 | P 1.54 | L 3.99 | A 1.41 | T 3.44 | M 2.17 | I 2.85 | R 2.78
Y21: P 3.02 | L 2.06 | H 2.96 | R 1.55 | Q 3.68 | T 3.04 | E 2.27 | M 4.01 | G 3.65 | K 2.84 | N 1.61
